{"source": "patent US6271440", "about": "“Plant regulatory proteins III” (The Australian National University)", "key": {"[1]": {"biological_target": "T1, GAMYB (OsGAMYB) (Oryza sativa) (UniProt Q0JIC2)", "T1 sequence": "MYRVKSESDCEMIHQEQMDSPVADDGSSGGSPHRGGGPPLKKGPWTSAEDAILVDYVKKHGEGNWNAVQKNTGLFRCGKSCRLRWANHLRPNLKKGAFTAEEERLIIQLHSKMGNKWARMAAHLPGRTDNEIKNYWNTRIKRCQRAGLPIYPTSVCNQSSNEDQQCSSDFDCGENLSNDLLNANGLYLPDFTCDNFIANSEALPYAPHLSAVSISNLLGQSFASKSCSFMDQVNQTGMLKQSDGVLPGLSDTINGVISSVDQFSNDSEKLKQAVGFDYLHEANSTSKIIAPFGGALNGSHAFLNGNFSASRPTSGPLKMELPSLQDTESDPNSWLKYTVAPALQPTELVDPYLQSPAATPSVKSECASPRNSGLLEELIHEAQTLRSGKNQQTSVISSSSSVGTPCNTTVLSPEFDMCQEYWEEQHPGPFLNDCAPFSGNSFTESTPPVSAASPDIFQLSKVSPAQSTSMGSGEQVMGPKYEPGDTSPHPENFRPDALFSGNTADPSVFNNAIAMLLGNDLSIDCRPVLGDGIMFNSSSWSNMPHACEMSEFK", "assay": "cell_activity", "details": "GUS increase without GA versus empty Ubi1.cass effector"}, "[2]": {"biological_target": "T2, GAMYB (HvGAMYB), GST fusion (Hordeum vulgare)", "T2 chain": "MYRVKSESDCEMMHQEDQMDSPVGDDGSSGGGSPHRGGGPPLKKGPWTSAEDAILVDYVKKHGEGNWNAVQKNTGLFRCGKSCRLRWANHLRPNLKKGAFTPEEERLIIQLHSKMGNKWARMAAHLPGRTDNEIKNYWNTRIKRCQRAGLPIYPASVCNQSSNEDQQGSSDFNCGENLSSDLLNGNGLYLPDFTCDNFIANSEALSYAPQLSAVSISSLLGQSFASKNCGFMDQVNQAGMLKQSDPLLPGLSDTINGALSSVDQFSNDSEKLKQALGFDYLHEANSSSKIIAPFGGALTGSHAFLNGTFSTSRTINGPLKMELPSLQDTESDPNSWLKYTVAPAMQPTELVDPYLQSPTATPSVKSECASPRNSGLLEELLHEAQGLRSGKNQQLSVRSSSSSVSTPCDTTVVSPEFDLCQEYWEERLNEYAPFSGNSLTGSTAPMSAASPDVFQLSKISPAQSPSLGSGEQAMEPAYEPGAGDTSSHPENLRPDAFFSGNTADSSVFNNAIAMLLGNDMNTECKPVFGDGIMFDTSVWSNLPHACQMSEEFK", "assay": "EMSA; TAACAGAc; mutation had no effect on binding", "details": "tags: N-terminal GST (pGEX), E. coli XL1-blue; label: 32P; 5' overhangs", "experimental": "(§1) After annealing the complementary oligonucleotides were 3' end-labelled using ^32P-dCTp and the Klenow fragment, and purified by electrophoresis on polyacrylamide gels. Bacterially-produced GAMYB fusion protein-oligonucleotide binding reactions were performed in 10 µl binding buffer (24 mM Hepes-KOH pH 7.9, 50 mM KCl, 0.5 mM EDTA, 0.5 mM dithiothreitol, 10% (v/v) glycerol) with 2 µg of poly(dI-dC)-poly(dI-dC), 150 ng of GAMYB fusion protein and 0.9 ng of a $^32$P-labelled oligonucleotide probe (40,000 cpm). After incubation at 20° C. for 10 min, the samples were run on a 6% (w/v) polyacrylamide gel containing 5% (v/v) glycerol, in 0.25 x Tris-borate-EDTA buffer at 140 volts. After electrophoresis, the gels were dried and autoradiographed.\n(§2) To test whether GAMYB binds to the TAACAAA box in the high-pI α-amylase promoter, we performed gel-retardation experiments as described in Example 8. We looked for binding between an oligonucleotide probe (w) containing the amylase promoter sequence (−149 to −128), including the wild-type TAACAAA box and an affinity-purified glutathione-s-transferase (GST)-GAMYB fusion protein that had been expressed in Escherichia coil according to Example 7. […] Experiments were also performed using mutant oligonucleotide probes (m-1 to m-5)."}, "[3]": {"biological_target": "T2, GAMYB (HvGAMYB), GST fusion", "assay": "EMSA; single mutation at 3' end of site", "details": "tags: N-terminal GST (pGEX), E. coli XL1-blue; label: 32P; 5' overhangs", "experimental": "as §1, §2"}, "[4]": {"biological_target": "T2, GAMYB (HvGAMYB), GST fusion", "assay": "EMSA; multi-bp mutation abolishes binding", "details": "tags: N-terminal GST (pGEX), E. coli XL1-blue; label: 32P; 5' overhangs", "experimental": "as §1, §2"}, "[5]": {"biological_target": "Glutathione-S-transferase (GST control) (UniProt P08515 P08515:1-218)", "sequence (P08515 whole entry, one chain of several)": "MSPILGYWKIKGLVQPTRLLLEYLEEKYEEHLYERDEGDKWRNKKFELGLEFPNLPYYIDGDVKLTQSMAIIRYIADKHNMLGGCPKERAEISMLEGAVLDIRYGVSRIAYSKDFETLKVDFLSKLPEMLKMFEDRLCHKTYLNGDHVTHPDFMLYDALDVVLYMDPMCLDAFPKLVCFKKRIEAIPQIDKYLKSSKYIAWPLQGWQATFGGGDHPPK", "assay": "EMSA; GST alone control", "details": "tags: pGEX vector; label: 32P; 5' overhangs", "experimental": "as §1, §2"}, "[6]": {"biological_target": "T2, GAMYB (HvGAMYB), GST fusion", "assay": "EMSA; 24 mM Hepes-KOH pH 7.9, 50 mM KCl, poly(dI-dC), 20 C; 100-fold cold w abolishes complex", "details": "tags: N-terminal GST (pGEX), E. coli XL1-blue; label: 32P; 5' overhangs", "experimental": "as §1, §2"}, "[7]": {"biological_target": "T2, GAMYB (HvGAMYB), GST fusion", "assay": "EMSA; single mutation TGACAAAc", "details": "tags: N-terminal GST (pGEX), E. coli XL1-blue; label: 32P; 5' overhangs", "experimental": "as §1, §2"}}, "data": [{"molecule": "Amy32b low-pI alpha-amylase promoter (mlo22)", "values": [{"measurement": "activity", "setting": "[1]", "result": 176, "unit": "fold"}]}, {"molecule": "m-3 (dsDNA) DNA 1: GGCCGATAACAGACTCCGG DNA 2: CCGGAGTCTGTTATCGGCC", "values": [{"measurement": "binding result", "setting": "[2]", "result": "binds"}]}, {"molecule": "m-5 (dsDNA) DNA 1: GGCCGATAACAAAATCCGG DNA 2: CCGGATTTTGTTATCGGCC", "values": [{"measurement": "binding result", "setting": "[3]", "result": "no binding"}]}, {"molecule": "m-1 (dsDNA) DNA 1: GGCCGACTCGAGACTCCGG DNA 2: CCGGAGTCTCGAGTCGGCC", "values": [{"measurement": "binding result", "setting": "[4]", "result": "no binding"}]}, {"molecule": "m-4 (dsDNA) DNA 1: GGCCGATAACAAGCTCCGG DNA 2: CCGGAGCTTGTTATCGGCC", "values": [{"measurement": "binding result", "setting": "[3]", "result": "no binding"}]}, {"molecule": "w (dsDNA) DNA 1: GGCCGATAACAAACTCCGG DNA 2: CCGGAGTTTGTTATCGGCC", "values": [{"measurement": "binding result", "setting": "[5]", "result": "no binding"}, {"measurement": "binding result", "setting": "[6]", "result": "binds"}]}, {"molecule": "m-2 (dsDNA) DNA 1: GGCCGATGACAAACTCCGG DNA 2: CCGGAGTTTGTCATCGGCC", "values": [{"measurement": "binding result", "setting": "[7]", "result": "no binding"}]}]}
